In the supplement of paper PMC10567573:

B1: TMEM106C (parent)
chain: SEQLVNFTGKAEMGGPFSYVYFFC

Variants of: B1
Experiment: protein stability index of a GFP-peptide fusion (GPS, HEK-293T) (PSI 1-6); higher = more stable
Conditions: c terminus: a fixed tail appended
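Also: lentivirally expressed fusions sorted by FACS into six bins by GFP to DsRed ratio, PSI derived from sequencing read proportions per bin multiplied by bin number.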

Protein stability index, by site and new letter:
V20: C 3.09 | D 1.76 | A 2.9
Y19: D 1.91 | G 2.97 | A 2 | C 2.1 | E 1.93 | M 3.35 | P 1.74 | R 2.1 | L 2.89 | F 2.11 | W 2.46 | V 3.9 | Q 2.12 | H 3.66 | N 1.97 | T 2.33 | K 3.22 | I 2.51
G14: R 2.42 | S 3.33 | F 3.25 | E 2.86 | V 3.73 | I 3.83 | M 2.79 | Q 2.52 | L 3 | Y 3.75 | C 3.15 | K 2.59 | D 3.46 | H 2.88 | P 3.48 | W 3.4 | A 3.63 | T 3.09 | N 2.23
F17: V 2.46 | D 1.95 | Y 2.21 | E 1.97 | W 3.31 | H 2.22 | C 2.79 | P 1.84 | L 3.08 | M 3.54 | N 2.93 | T 2.41 | A 2.55 | G 2.28 | K 2.42 | I 2.47 | S 2.5 | R 3.07 | Q 2.77
E12: R 3.52 | I 2.98 | M 3.74 | K 4.11 | W 3.46 | D 2.46 | P 3.12 | H 3.66 | T 2.51 | Q 4.32 | Y 3.17 | G 2.96 | A 1.37 | L 2.07 | N 2.69 | F 2.67 | V 2.79 | C 2.67 | S 2.79
A11: R 2.14 | L 2.92 | N 2.66 | W 2.75 | P 4.32 | Y 2.47 | T 3.55 | Q 3.25 | I 2.16 | K 3.7 | H 2.39 | M 2.61 | S 2.17 | V 3.08
P16: W 2.94 | S 2.1 | Q 2.58 | N 3.26 | Y 3.76 | G 2.05 | I 2.04 | M 3.03 | T 2.4 | R 3.05 | L 3.79 | K 2.98 | F 3.14 | H 2.25 | A 2.25 | C 3.95 | D 3.16 | V 2.47 | E 2.88
S18: E 2.23 | I 3.11 | P 2.26 | R 3.37 | V 4.08 | W 1.72 | Q 2.45 | Y 2.04 | G 1.88 | H 2.35 | L 3.3 | K 2.25 | T 2.31 | M 4.17 | F 3.04 | A 2.29 | N 3 | C 2.74
M13: Q 2.02 | G 2.77 | F 2.15 | R 2.54 | W 2.15 | E 1.54 | V 3.14 | T 2.27 | H 2.64 | S 2.16 | Y 3.13 | D 3.13 | C 2.52 | N 2.69 | P 2.52 | A 2.1 | K 2.34 | I 3.54 | L 2.2
G15: Q 2.59 | A 2.8 | M 3.83 | E 3.6 | T 2.73 | D 2.33 | R 2.79 | K 2.63 | V 2.76 | H 3.96 | P 4.29 | Y 2.89 | C 2.89 | F 3.12 | W 2.36 | L 2.52 | N 2.23 | S 2.85 | I 3.9
